We go through three molecules from patent publication US11548942B2, “Methods of treating a wasting syndrome, increasing growth hormone levels, and increasing GHSR activity with a LEAP2 antibody” (NGM Biopharmaceuticals, Inc., priority 2017, dated 2023).

One test concerns food intake. Briefly: Food intake in mice. It counts as in vivo. The protocol:
Mice were housed in individual cages and food intake was measured at 0.5, 1, and 2 hours.
Mice were subcutaneously injected with 0.15 μmol/kg or 3 μmol/kg LEAP2.

Another test has as its target T1, endogenous LEAP2 (Mus musculus, UniProt Q91V13).
T1 construct: The mature form of LEAP2 found in circulation is a 40 amino acid cationic bicyclic peptide; from tissue; host or cells: live fasted mice; circulating endogenous LEAP2
T1 sequence (Q91V13 37-76): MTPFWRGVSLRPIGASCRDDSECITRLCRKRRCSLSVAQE
Briefly: Growth hormone release after fasting and anti-LEAP2 antibody treatment. The test is classed as in vivo, mice. The note with it: 10 mg/kg i.p. after 24 hour fasting. The protocol: FIG. 10C illustrates the experimental design for evaluating the impact of anti-LEAP2 antibodies on growth hormone release. Following a 24 hour fasting period, a baseline blood sample was taken, and anti-LEAP2 antibodies (10 mg/kg) were administered by intraperitoneal injection. Growth hormone levels were determined at 5, 10, 30, 60, 90, and 120 minutes post-injection.

Test [1] is described as follows: Growth hormone infusion during chronic calorie restriction in LEAP2-expressing mice. It counts as in vivo. The note with it: growth hormone pumps 0.5 μg/hr s.c. The protocol:
As described above, two weeks before initiation of calorie restriction, 2-3 month-old male mice were administered AAV-LEAP2 or AAV-GFP by tail vein injection. Diet treatment groups and measurements were the same as above. For growth hormone infusion, Alzet® osmotic mini-pumps filled with recombinant rat growth hormone (GroPep Bioreagents) or vehicle were implanted subcutaneously in the interscapular region. Growth hormone concentration in the pumps was 2 mg/ml and the growth hormone was delivered at a rate of 0.25 μl/hr (0.5 μg/hr).
FIG. 8A illustrates the experimental design for growth hormone infusion during chronic calorie restriction. The delivery efficiency of growth hormone was confirmed in a separate group of naïve mice kept in ad libitum conditions over 2 weeks. […] Osmotic pumps were implanted 3 days before initiation of calorie restriction. […] In LEAP2-expressing mice implanted with growth hormone pumps, 60% were able to maintain stable levels of blood glucose and survived to the end of the experiment. […] FIG. 8C presents a Kaplan-Meier survival curve of the mice from this experiment.

Take `CCCCCCCC(=O)OC[C@H](NC(=O)[C@H](CO)NC(=O)CN)C(=O)N[C@@H](Cc1ccccc1)C(=O)N[C@@H](CC(C)C)C(=O)N[C@@H](CO)C(=O)N1CCC[C@H]1C(=O)N[C@@H](CCC(=O)O)C(=O)N[C@@H](Cc1c[nH]cn1)C(=O)N[C@@H](CCC(N)=O)C(=O)N[C@@H](CCCNC(=N)N)C(=O)N[C@H](C(=O)N[C@@H](CCC(N)=O)C(=O)N[C@@H](CCC(N)=O)C(=O)N[C@@H](CCCNC(=N)N)C(=O)N[C@@H](CCCCN)C(=O)N[C@@H](CCC(=O)O)C(=O)N[C@@H](CO)C(=O)N[C@@H](CCCCN)C(=O)N[C@@H](CCCCN)C(=O)N1CCC[C@H]1C(=O)N1CCC[C@H]1C(=O)N[C@@H](C)C(=O)N[C@@H](CCCCN)C(=O)N[C@@H](CC(C)C)C(=O)N[C@@H](CCC(N)=O)C(=O)N1CCC[C@H]1C(=O)N[C@@H](CCCNC(=N)N)C(=O)O)C(C)C` [ghrelin]: the food intake result with food intake (ghrelin 0.03 μmol/kg s.c.) was “only slightly increased”; in the test with food intake (ghrelin 0.15 μmol/kg s.c., 1 and 2 hour time points), “significantly promote food intake”.

B1: M18: mouse hybridoma anti-LEAP2 monoclonal antibody, VH SEQ ID NO:9, VL SEQ ID NO:10 (antibody, V domains shown)
VH: EIQLQQSGPELMKPGASVKISCKASGYSFTNYYIHWVKQSHGKSLEWIGYIDPFNGGTNYNQKFKGKATLTVDKSSSTAYMHLSSLTFEDSAVYYCARRGYYYGFTYWGQGTLVTVSA
VL: DIVLTQSPASLAVSLGQRATISCKASQSVDYDGDSYMNWYQQKPGQPPKLLIYTASNLESGIPARFSGSGSGTDFTLNIHPVEEEDAATYYCQQSNEDPYTFGGGTKLEIK
B1: the “total amount of growth hormone released (AUC)” value with endogenous LEAP2 is on record as “increased the total amount of growth hormone released”. Also, in the test with endogenous LEAP2 (versus control antibody), the “peak of growth hormone secretion” value is listed as “increased the peak of growth hormone secretion”.

B2: growth hormone: recombinant rat growth hormone (GroPep Bioreagents) delivered by Alzet osmotic mini-pumps (protein, UniProt P01244 27-216, looked up)
Somatotropin: FPAMPLSSLFANAVLRAQHLHQLAADTYKEFERAYIPEGQRYSIQNAQAAFCFSETIPAPTGKEEAQQRTDMELLRFSLLLIQSWLGPVQFLSRIFTNSLMFGTSDRVYEKLKDLEEGIQALMQELEDGSPRIGQILKQTYDKFDANMRSDDALLKNYGLLSCFKKDLHKAETYLRVMKCRRFAESSCAF
In the case of B2, the “LEAP2-expressing mice able to maintain stable blood glucose and surviving to the end of the experiment” value in test [1] turned out to be 60%.
